Assay results taken from the supplement of paper PMC10065799, “High-throughput profiling of sequence recognition by tyrosine kinases and SH2 domains using bacterial peptide display” (eLife, 2023).
One block for each sequence: values may come before it.

Columns and labels:
Grb2 SH2 = Grb2 SH2 (UniProt P62993); test: SH2 binding enrichment of the phosphorylated peptide, bacterial display (enrichment ratio); higher = better substrate or ligand; peptides without Tyr show the background
c-Src SH2 = test: as above
SHP2-C SH2 = test: as above
EPHB2 = EPHB2 (UniProt P29323); test: phosphorylation enrichment, bacterial display (enrichment ratio); higher = better substrate or ligand; peptides without Tyr show the background
Chain of EPHB2 (P29323 whole entry, looked up): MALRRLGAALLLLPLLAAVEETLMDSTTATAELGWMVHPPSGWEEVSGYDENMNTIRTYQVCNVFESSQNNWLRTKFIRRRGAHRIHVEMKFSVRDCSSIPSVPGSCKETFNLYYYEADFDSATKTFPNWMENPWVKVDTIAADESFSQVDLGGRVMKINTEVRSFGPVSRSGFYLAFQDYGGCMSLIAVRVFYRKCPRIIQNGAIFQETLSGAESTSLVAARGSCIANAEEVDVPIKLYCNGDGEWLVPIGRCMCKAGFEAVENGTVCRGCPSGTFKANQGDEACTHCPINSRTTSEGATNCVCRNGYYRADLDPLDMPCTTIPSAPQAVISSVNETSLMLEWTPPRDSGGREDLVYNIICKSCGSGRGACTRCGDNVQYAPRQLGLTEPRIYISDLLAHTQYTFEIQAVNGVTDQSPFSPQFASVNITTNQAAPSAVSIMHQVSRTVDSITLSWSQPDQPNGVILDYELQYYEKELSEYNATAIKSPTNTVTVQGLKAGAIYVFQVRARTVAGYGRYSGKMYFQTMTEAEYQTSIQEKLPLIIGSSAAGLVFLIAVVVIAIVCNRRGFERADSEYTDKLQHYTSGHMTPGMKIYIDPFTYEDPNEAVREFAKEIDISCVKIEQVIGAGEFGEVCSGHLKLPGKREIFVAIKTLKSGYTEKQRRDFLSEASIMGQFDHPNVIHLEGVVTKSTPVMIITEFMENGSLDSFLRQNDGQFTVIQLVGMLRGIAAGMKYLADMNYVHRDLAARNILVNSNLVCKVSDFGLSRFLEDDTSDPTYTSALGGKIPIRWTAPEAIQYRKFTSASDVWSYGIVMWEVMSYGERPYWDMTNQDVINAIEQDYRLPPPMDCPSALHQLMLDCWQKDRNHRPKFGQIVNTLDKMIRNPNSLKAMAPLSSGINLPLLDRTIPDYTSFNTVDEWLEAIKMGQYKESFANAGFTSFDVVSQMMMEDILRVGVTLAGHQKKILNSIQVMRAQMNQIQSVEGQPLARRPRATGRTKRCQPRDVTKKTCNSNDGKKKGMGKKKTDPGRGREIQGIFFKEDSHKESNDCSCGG

AncSZ = test: as above
Fer (mouse) = test: as above
FGFR1 = FGFR1 (UniProt P11362); test: as above
Chain of FGFR1 (P11362 whole entry, looked up): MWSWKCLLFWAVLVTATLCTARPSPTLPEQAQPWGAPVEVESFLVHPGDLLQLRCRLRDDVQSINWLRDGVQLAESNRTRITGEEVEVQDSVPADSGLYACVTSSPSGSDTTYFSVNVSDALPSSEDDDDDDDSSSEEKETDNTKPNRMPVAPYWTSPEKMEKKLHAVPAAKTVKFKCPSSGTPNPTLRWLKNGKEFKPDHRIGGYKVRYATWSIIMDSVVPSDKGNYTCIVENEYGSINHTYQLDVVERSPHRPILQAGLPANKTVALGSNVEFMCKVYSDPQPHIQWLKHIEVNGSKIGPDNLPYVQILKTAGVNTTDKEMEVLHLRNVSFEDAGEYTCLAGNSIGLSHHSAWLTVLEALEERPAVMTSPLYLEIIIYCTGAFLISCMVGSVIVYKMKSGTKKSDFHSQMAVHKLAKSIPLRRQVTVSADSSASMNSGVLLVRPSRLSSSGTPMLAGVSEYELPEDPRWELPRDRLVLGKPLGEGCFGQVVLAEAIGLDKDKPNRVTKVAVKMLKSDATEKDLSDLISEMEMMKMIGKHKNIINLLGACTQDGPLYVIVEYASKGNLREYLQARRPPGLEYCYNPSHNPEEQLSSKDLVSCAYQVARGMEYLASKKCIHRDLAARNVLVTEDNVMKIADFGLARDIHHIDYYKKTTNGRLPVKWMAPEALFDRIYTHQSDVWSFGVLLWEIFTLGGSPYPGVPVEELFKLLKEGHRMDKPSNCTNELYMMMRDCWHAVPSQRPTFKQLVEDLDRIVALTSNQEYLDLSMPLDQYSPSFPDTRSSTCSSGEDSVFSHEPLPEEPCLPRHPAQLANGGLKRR

c-Src = test: as above
FGFR3 = FGFR3 (UniProt P22607); test: as above
Chain of FGFR3 (P22607 whole entry, looked up): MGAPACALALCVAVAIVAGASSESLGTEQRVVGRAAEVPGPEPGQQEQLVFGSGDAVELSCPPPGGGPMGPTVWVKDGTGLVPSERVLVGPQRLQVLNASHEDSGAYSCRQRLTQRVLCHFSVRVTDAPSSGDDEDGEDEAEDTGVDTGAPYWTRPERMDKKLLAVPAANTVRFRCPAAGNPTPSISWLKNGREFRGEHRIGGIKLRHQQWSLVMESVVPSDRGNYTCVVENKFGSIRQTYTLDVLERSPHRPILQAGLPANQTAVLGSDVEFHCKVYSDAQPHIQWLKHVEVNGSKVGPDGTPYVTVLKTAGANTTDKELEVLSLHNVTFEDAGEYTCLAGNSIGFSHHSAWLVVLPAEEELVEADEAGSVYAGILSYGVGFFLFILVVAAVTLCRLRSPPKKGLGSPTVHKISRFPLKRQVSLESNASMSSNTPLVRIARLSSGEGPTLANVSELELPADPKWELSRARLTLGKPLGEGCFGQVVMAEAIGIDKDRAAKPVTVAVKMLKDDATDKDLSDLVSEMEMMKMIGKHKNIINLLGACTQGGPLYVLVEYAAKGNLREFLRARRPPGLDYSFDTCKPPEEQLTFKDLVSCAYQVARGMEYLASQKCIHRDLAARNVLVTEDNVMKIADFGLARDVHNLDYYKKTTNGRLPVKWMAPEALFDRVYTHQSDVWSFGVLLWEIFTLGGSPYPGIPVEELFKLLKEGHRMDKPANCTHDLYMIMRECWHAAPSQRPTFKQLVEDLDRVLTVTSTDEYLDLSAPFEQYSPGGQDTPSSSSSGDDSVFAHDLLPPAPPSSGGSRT

c-Abl (mouse) = test: as above
MERTK = MERTK (UniProt Q12866); test: as above
Chain of MERTK (Q12866 whole entry, looked up): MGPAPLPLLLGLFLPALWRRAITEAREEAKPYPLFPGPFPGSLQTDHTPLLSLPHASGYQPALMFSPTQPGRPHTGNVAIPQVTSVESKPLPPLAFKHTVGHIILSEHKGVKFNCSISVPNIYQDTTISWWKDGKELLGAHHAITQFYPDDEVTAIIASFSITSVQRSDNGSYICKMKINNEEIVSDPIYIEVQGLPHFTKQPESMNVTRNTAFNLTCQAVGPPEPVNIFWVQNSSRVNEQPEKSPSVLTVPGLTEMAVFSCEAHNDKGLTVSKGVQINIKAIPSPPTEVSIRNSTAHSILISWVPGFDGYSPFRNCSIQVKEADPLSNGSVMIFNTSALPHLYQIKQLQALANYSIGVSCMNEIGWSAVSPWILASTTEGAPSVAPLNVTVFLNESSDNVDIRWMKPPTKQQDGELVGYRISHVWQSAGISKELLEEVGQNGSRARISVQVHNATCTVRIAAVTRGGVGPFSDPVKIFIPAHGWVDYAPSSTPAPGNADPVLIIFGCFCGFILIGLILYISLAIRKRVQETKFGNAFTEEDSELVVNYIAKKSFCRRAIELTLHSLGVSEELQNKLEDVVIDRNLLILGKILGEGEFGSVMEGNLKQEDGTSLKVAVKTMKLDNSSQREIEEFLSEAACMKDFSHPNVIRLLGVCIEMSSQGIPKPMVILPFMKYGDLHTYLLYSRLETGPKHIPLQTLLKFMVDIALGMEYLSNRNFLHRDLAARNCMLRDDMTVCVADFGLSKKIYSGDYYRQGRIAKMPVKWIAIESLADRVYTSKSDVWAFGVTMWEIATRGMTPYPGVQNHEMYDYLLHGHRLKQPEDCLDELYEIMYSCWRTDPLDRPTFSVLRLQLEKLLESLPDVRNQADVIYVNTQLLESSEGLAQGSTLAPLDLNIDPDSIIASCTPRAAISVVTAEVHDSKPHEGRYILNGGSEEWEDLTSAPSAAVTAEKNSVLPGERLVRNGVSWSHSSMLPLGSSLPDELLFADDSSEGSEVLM

Jak2 = Jak2 (UniProt O60674); test: as above
Hck = Hck (UniProt P08631); test: as above
Chain of Hck (P08631 whole entry, looked up): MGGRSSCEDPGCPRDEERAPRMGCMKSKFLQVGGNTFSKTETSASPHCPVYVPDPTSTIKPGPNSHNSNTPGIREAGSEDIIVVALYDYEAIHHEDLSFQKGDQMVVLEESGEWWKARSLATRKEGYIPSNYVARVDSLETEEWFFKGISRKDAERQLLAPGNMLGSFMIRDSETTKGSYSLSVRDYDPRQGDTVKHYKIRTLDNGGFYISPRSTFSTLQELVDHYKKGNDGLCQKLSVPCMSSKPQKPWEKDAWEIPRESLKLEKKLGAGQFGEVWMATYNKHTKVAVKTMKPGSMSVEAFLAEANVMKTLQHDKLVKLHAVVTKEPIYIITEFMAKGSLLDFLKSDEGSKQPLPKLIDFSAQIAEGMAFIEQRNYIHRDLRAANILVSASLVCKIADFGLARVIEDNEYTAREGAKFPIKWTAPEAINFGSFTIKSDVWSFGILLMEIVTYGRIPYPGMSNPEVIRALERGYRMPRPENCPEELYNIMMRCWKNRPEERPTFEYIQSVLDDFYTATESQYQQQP

EPHB1 = EPHB1 (UniProt P54762); test: as above
Fyn = Fyn (UniProt P06241); test: as above
Fes = Fes (UniProt P07332); test: as above
Chain of Fes (P07332 whole entry, looked up, the tested form may be a part): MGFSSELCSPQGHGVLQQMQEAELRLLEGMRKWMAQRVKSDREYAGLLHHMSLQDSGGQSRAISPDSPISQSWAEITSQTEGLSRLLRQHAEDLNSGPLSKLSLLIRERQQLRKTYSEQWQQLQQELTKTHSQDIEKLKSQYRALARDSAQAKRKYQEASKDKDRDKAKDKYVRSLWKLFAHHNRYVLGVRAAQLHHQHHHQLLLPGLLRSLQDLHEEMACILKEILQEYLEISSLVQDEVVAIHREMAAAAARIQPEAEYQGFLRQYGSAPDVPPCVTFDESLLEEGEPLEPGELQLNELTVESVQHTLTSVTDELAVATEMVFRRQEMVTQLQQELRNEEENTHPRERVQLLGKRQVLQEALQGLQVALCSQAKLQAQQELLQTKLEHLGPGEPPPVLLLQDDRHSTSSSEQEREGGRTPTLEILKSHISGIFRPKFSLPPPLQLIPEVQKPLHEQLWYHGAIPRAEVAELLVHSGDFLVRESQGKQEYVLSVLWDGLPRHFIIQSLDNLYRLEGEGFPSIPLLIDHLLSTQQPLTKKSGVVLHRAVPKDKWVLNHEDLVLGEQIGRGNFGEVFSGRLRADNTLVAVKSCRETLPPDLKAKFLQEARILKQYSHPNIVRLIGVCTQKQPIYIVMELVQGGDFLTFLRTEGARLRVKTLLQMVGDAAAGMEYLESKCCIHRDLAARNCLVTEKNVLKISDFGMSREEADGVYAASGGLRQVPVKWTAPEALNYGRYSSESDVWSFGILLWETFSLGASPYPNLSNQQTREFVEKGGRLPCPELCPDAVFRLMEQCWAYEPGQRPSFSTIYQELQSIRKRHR
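Wherever SH2 binding enrichment of the phosphorylated peptide, bacterial display is given: peptide library displayed on the E. coli surface as eCPX fusions, selected cells deep-sequenced, score is each peptide's frequency after selection divided by its frequency in the input.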
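Wherever phosphorylation enrichment, bacterial display is given: 11-residue human phosphosite peptides and single-mutation variants displayed on the E. coli surface, counted by deep sequencing, each peptide's frequency after selection divided by its frequency in the unselected input library; frequency after pTyr selection over input frequency; kinase dosed for 20-30% of maximal phosphorylation in three min.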

SH2 binding enrichment (Grb2 SH2): 0.866
SH2 binding enrichment (c-Src SH2): 0.518
SH2 binding enrichment (SHP2-C SH2): 0.742
Sequence: GDKENYGLPQP [BUB1_Y538_N534D]
phosphorylation enrichment (EPHB2): 0.794
phosphorylation enrichment (AncSZ): 0.873
phosphorylation enrichment (Fer (mouse)): 0.419
phosphorylation enrichment (FGFR1): 0.452
phosphorylation enrichment (c-Src): 0.433
phosphorylation enrichment (FGFR3): 0.567
phosphorylation enrichment (c-Abl (mouse)): 0.632
phosphorylation enrichment (MERTK): 0.432
phosphorylation enrichment (Jak2): 0.715
phosphorylation enrichment (Hck): 0.469
phosphorylation enrichment (EPHB1): 0.509
phosphorylation enrichment (Fyn): 0.461
phosphorylation enrichment (Fes): 0.859

SH2 binding enrichment (Grb2 SH2): 1.04
SH2 binding enrichment (c-Src SH2): 2.17
SH2 binding enrichment (SHP2-C SH2): 1.11
Sequence: PKEQRYSFLQN [GH1_Y68_K67R]
phosphorylation enrichment (EPHB2): 0.901
phosphorylation enrichment (AncSZ): 1.27
phosphorylation enrichment (Fer (mouse)): 0.902
phosphorylation enrichment (FGFR1): 1.12
phosphorylation enrichment (c-Src): 0.631
phosphorylation enrichment (FGFR3): 0.617
phosphorylation enrichment (c-Abl (mouse)): 0.744
phosphorylation enrichment (MERTK): 6.49
phosphorylation enrichment (Jak2): 1.62
phosphorylation enrichment (Hck): 0.904
phosphorylation enrichment (EPHB1): 0.75
phosphorylation enrichment (Fyn): 0.605
phosphorylation enrichment (Fes): 1.44

SH2 binding enrichment (Grb2 SH2): 0.885
SH2 binding enrichment (c-Src SH2): 1.33
SH2 binding enrichment (SHP2-C SH2): 0.789
Sequence: QWPGPYDRPGA [HNRNPH2_Y210_R206W]
phosphorylation enrichment (EPHB2): 0.513
phosphorylation enrichment (AncSZ): 0.646
phosphorylation enrichment (Fer (mouse)): 0.858
phosphorylation enrichment (FGFR1): 0.602
phosphorylation enrichment (c-Src): 0.54
phosphorylation enrichment (FGFR3): 0.798
phosphorylation enrichment (c-Abl (mouse)): 0.681
phosphorylation enrichment (MERTK): 0.541
phosphorylation enrichment (Jak2): 0.719
phosphorylation enrichment (Hck): 0.73
phosphorylation enrichment (EPHB1): 0.416
phosphorylation enrichment (Fyn): 0.636
phosphorylation enrichment (Fes): 0.928

SH2 binding enrichment (Grb2 SH2): 1.02
SH2 binding enrichment (c-Src SH2): 0.455
SH2 binding enrichment (SHP2-C SH2): 0.878
Sequence: QMWLKYSQSDL [SMC1A_Y714_R711W]
phosphorylation enrichment (EPHB2): 0.562
phosphorylation enrichment (AncSZ): 1.67
phosphorylation enrichment (Fer (mouse)): 0.512
phosphorylation enrichment (FGFR1): 0.701
phosphorylation enrichment (c-Src): 0.668
phosphorylation enrichment (FGFR3): 1.08
phosphorylation enrichment (c-Abl (mouse)): 1.11
phosphorylation enrichment (MERTK): 0.505
phosphorylation enrichment (Jak2): 1.27
phosphorylation enrichment (Hck): 0.546
phosphorylation enrichment (EPHB1): 0.637
phosphorylation enrichment (Fyn): 0.485
phosphorylation enrichment (Fes): 1.8

Sequence: TVFENYVADIE [RHOA_Y42]
SH2 binding enrichment (Grb2 SH2): 0.798
SH2 binding enrichment (c-Src SH2): 0.541
SH2 binding enrichment (SHP2-C SH2): 0.618
phosphorylation enrichment (EPHB2): 0.664
phosphorylation enrichment (AncSZ): 1.42
phosphorylation enrichment (Fer (mouse)): 0.513
phosphorylation enrichment (FGFR1): 0.642
phosphorylation enrichment (c-Src): 0.521
phosphorylation enrichment (FGFR3): 0.925
phosphorylation enrichment (c-Abl (mouse)): 0.861
phosphorylation enrichment (MERTK): 0.631
phosphorylation enrichment (Jak2): 1.46
phosphorylation enrichment (Hck): 0.588
phosphorylation enrichment (EPHB1): 0.647
phosphorylation enrichment (Fyn): 0.58
phosphorylation enrichment (Fes): 1.15

SH2 binding enrichment (Grb2 SH2): 0.646
SH2 binding enrichment (c-Src SH2): 0.414
SH2 binding enrichment (SHP2-C SH2): 0.747
Sequence: ELAKFYKLHHI [AK7_Y391_N389K_YF]
phosphorylation enrichment (EPHB2): 0.452
phosphorylation enrichment (AncSZ): 0.65
phosphorylation enrichment (Fer (mouse)): 0.462
phosphorylation enrichment (FGFR1): 0.453
phosphorylation enrichment (c-Src): 0.505
phosphorylation enrichment (FGFR3): 0.531
phosphorylation enrichment (c-Abl (mouse)): 0.621
phosphorylation enrichment (MERTK): 0.536
phosphorylation enrichment (Jak2): 0.645
phosphorylation enrichment (Hck): 0.501
phosphorylation enrichment (EPHB1): 0.547
phosphorylation enrichment (Fyn): 0.566
phosphorylation enrichment (Fes): 0.762

SH2 binding enrichment (Grb2 SH2): 0.76
SH2 binding enrichment (c-Src SH2): 0.447
SH2 binding enrichment (SHP2-C SH2): 0.696
Sequence: FPILNYKDIRK [CFAP221_Y798_M795I]
phosphorylation enrichment (EPHB2): 0.487
phosphorylation enrichment (AncSZ): 0.546
phosphorylation enrichment (Fer (mouse)): 0.449
phosphorylation enrichment (FGFR1): 0.431
phosphorylation enrichment (c-Src): 0.49
phosphorylation enrichment (FGFR3): 0.464
phosphorylation enrichment (c-Abl (mouse)): 0.486
phosphorylation enrichment (MERTK): 0.453
phosphorylation enrichment (Jak2): 0.745
phosphorylation enrichment (Hck): 0.391
phosphorylation enrichment (EPHB1): 0.478
phosphorylation enrichment (Fyn): 0.368
phosphorylation enrichment (Fes): 0.666

SH2 binding enrichment (Grb2 SH2): 1.35
SH2 binding enrichment (c-Src SH2): 1.42
SH2 binding enrichment (SHP2-C SH2): 1.47
Sequence: VEDQYYCVDCY [FHL1_Y208]
phosphorylation enrichment (EPHB2): 0.754
phosphorylation enrichment (AncSZ): 5.02
phosphorylation enrichment (Fer (mouse)): 1.11
phosphorylation enrichment (FGFR1): 12
phosphorylation enrichment (c-Src): 2.77
phosphorylation enrichment (FGFR3): 10.3
phosphorylation enrichment (c-Abl (mouse)): 1.1
phosphorylation enrichment (MERTK): 3.19
phosphorylation enrichment (Jak2): 1.86
phosphorylation enrichment (Hck): 1.46
phosphorylation enrichment (EPHB1): 1.02
phosphorylation enrichment (Fyn): 2.34
phosphorylation enrichment (Fes): 1.48
